Results from patent US20180215829A1 (CRESCENDO BIOLOGICS, published 2018).

How the values were obtained:
[1] = biological target: T1, human IL-17RA on HT1080 cells (human, UniProt Q96F46 33-866); test: cell-based or functional assay
T1 sequence: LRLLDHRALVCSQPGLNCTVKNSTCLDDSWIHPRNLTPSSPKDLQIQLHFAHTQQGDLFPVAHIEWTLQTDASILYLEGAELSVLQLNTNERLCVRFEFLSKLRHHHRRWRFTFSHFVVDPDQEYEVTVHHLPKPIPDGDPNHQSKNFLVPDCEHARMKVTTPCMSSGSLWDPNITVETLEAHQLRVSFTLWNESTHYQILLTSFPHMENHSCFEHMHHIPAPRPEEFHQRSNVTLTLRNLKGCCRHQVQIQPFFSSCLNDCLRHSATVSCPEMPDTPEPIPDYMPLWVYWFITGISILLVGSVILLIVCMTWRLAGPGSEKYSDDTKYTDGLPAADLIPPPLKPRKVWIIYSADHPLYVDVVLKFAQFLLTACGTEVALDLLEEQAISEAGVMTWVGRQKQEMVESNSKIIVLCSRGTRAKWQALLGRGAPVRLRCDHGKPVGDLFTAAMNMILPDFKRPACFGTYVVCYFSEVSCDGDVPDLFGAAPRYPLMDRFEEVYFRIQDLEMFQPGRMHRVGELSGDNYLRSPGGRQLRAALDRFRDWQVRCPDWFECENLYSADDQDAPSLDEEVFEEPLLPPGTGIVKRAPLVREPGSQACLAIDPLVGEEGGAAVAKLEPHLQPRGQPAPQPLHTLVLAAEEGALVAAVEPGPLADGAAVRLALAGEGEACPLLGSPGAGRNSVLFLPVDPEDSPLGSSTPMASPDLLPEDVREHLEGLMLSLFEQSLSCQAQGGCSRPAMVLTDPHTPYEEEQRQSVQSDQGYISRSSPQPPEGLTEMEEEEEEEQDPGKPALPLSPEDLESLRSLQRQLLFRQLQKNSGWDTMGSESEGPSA

[2] = biological target: T2, IL-17RD (UniProt Q8NFM7 17-299, limits assumed); test: specificity ELISA, antigen coated, anti-His-HRP detection
T2 sequence (looked up): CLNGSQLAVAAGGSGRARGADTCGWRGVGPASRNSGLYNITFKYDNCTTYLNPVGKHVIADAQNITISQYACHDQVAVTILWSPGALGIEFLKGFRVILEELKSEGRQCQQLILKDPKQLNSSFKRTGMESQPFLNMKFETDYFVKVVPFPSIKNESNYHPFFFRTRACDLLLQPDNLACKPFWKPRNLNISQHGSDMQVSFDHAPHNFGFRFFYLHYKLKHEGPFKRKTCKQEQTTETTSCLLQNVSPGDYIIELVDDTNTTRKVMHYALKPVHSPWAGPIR
Procedure: (§1) The binding ELISA for crude or purified VH was similar to the serum ELISA and phage ELISA, previously described, mostly differing in the final detection steps. Briefly, antigen was immobilised on maxisorb plates (Nunc 443404) by adding 50 ul volumes at 0.1-1 ug/ml in PBS and incubating at 4° C. overnight. Following coating, the antigen solution was aspirated and the plates were washed using PBS (prepared from PBS tablets, Oxoid cat no. BR0014G) supplemented with 0.05% Tween® 20 (sigma P1379), followed by washes with PBS without added Tween®. To block non-specific protein interactions, a solution of 3% skimmed milk powder (Marvel) in PBS was added to the wells and the plate was incubated for at least one hour at room temperature. Dilutions of periplasmic extract or purified VH in 3% Marvel/PBS were prepared in polypropylene tubes or plates and incubated for at least one hour at room temperature prior to transfer to the blocked ELISA plate where a further incubation of at least one hour took place. Unbound protein was then washed away using repetitive washes with PBS/Tween® followed by PBS. A solution of HRP-conjugated anti-His Ab (Miltenyi Biotec, 130-092-785), prepared at 1:1000 dilution in PBS/3% Marvel was then added to each well and a further incubation at room temperature for at least one hour took place. Unbound detection antibody was removed by repeated washing using PBS/Tween® and PBS. The ELISA was then developed using TMB substrate (Sigma cat. no. T0440) and the reaction was stopped after 10 minutes by the addition of 0.5M H₂SO₄ solution (Sigma cat. no. 320501). Absorbances were determined by reading at 450 nm.

[3] = biological target: T3, IL-17RB (UniProt Q9NRM6 18-289, limits assumed); test: as above
T3 sequence (looked up): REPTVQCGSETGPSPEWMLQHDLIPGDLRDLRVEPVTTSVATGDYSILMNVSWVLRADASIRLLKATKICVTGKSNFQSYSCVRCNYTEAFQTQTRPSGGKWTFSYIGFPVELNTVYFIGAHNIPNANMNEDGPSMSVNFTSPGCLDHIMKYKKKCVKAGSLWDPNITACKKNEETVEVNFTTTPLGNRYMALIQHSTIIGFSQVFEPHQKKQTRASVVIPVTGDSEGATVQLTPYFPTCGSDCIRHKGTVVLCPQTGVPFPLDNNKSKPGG
Procedure: as §1

[4] = biological target: T4, recombinant human IL-17RA Fc fusion protein (R&D Systems 177-IR-100) (human, UniProt Q96F46 33-320); test: receptor/ligand biochemical inhibition ELISA: VH competes with 1 nM IL-17A for coated IL-17RA-Fc
T4 construct: Bought protein; not shown: Fc domain of human IgG1
T4 sequence: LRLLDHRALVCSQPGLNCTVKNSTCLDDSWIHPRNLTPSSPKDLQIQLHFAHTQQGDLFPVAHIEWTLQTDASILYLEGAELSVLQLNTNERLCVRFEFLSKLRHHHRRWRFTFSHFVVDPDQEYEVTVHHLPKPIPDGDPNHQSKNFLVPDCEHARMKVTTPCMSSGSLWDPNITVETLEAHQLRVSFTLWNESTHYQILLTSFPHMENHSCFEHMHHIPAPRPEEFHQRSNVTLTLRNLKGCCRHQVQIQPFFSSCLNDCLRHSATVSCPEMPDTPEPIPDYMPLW
Procedure: VH, both purified and crude periplasmic extracts, were also tested for their ability to inhibit the interaction of IL-17A with recombinant IL-17RA-Fc. […] Following washing of excess coating antigen, as described above, the wells of the plate were incubated with 3% Marvel/PBS to block non-specific protein interactions. VH preparations, crude periplasmic extracts or purified VH, or suitable controls, were prepared with 1 nM recombinant IL-17A (Peprotech, cat# AF-200-17) in 3% skimmed milk powder/PBS solution in polypropylene plates or tubes. The mixture was then transferred to the assay plate and incubated for 1 hour at room temperature. Excess protein was removed by washing and bound IL-17A was detected by incubation with biotinylated anti-IL-17A Mab (R & D Systems, cat BAF317) followed by the addition of neutravidin-HRP (Pierce, cat#31030) and TMB substrate (Sigma, cat# T0440). The TMB reaction was stopped by addition of 0.5M H₂SO₄ and absorbances were measured at 450 nm in a plate reader.

B1: VH clone 2.1 (VHH)
VHH: QVQLVQSGAEVKKPGASVKVSCKASGYPFTSYDINWVRQATGQSLEWMGWMNPNSGDTVYAQKFQGRVTMTRNTSISTAYMELSSLRSEDTAVYFCARGRRDDWKNNYWGQGTLVTVSS
notes: Human VH single domain antibody, no light chain; Parent clone of family 2; also called VH 2.1
[1]
  Cell assay IC50: 280 nM
[2]
  binding result: no binding
[3]
  binding result: no binding
[4]
  IC50: 3.7 nM
